How the values were obtained:
[1] = biological target: PD-1 on in vitro activated primary human T cells (human) (UniProt Q15116); assay: flow cytometry, PD-1 staining of activated T cells treated with IL-15 100 nM
[2] = biological target: PD-1 on in vitro activated primary human T cells (human) (UniProt Q15116); assay: flow cytometry, PD-1 staining of activated T cells treated with IL-15Rα-Fc precomplexed with IL-15, 1 nM
[3] = biological target: PD-1 on in vitro activated primary human T cells (human) (UniProt Q15116); assay: flow cytometry, PD-1 staining of activated T cells treated with IL-15Rα-Fc precomplexed with IL-15, 100 nM
[4] = biological target: PD-1 on in vitro activated primary human T cells (human) (UniProt Q15116); assay: flow cytometry, PD-1 staining of activated T cells treated with RV2 precomplexed with IL-15, 1 nM
[5] = biological target: PD-1 on in vitro activated primary human T cells (human) (UniProt Q15116); assay: flow cytometry, PD-1 staining of activated T cells treated with RV2 precomplexed with IL-15, 10 nM
[6] = biological target: PD-1 on in vitro activated primary human T cells (human) (UniProt Q15116); assay: flow cytometry, PD-1 staining of activated T cells, media only
[7] = biological target: PD-1 on in vitro activated primary human T cells (human) (UniProt Q15116); assay: flow cytometry, PD-1 staining of Ki-67 positive activated T cells, average over the non-PD-1-binding treatments
[8] = biological target: PD-1 on in vitro activated primary human T cells (human) (UniProt Q15116); assay: flow cytometry, PD-1 staining of activated T cells treated with RV1 precomplexed with IL-15, 10 nM
[9] = biological target: PD-1 on in vitro activated primary human T cells (human) (UniProt Q15116); assay: flow cytometry, PD-1 staining of activated T cells treated with RV1 precomplexed with IL-15, 1 nM
[10] = biological target: PD-1 on in vitro activated primary human T cells (human) (UniProt Q15116); assay: flow cytometry, PD-1 staining of activated T cells treated with RV2 precomplexed with IL-15, 100 nM
[11] = biological target: PD-1 on in vitro activated primary human T cells (human) (UniProt Q15116); assay: flow cytometry, PD-1 staining of activated T cells treated with IL-15 10 nM
[12] = biological target: PD-1 on in vitro activated primary human T cells (human) (UniProt Q15116); assay: flow cytometry, PD-1 staining of activated T cells treated with RV1 precomplexed with IL-15, 100 nM
[13] = biological target: PD-1 on in vitro activated primary human T cells (human) (UniProt Q15116); assay: flow cytometry, PD-1 staining of activated T cells treated with IL-15 1 nM
[14] = biological target: PD-1 on in vitro activated primary human T cells (human) (UniProt Q15116); assay: flow cytometry, PD-1 staining of activated T cells treated with IL-15Rα-Fc precomplexed with IL-15, 10 nM

Chain of PD-1 on in vitro activated primary human T cells (human) (Q15116 25-288): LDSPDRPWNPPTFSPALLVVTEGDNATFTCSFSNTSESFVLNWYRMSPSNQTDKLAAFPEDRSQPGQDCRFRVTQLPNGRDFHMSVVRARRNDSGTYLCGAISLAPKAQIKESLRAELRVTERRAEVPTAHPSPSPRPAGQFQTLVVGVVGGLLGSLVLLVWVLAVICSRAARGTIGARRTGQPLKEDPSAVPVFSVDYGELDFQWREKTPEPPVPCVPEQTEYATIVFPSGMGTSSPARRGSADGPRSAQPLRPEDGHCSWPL

MFI of PD-1 in Ki-67 positive CD4+ T cells [1]: 6550 MFI
MFI of PD-1 in Ki-67 positive CD8+ T cells [1]: 3220 MFI
MFI of PD-1 in Ki-67 positive CD4+ T cells [2]: 4280 MFI
MFI of PD-1 in Ki-67 positive CD8+ T cells [2]: 1690 MFI
MFI of PD-1 in Ki-67 positive CD4+ T cells [3]: 4380 MFI
MFI of PD-1 in Ki-67 positive CD8+ T cells [3]: 2110 MFI
MFI of PD-1 in Ki-67 positive CD4+ T cells [4]: 4200 MFI
MFI of PD-1 in Ki-67 positive CD8+ T cells [4]: 1920 MFI
MFI of PD-1 in Ki-67 positive CD4+ T cells [5]: 5070 MFI
MFI of PD-1 in Ki-67 positive CD8+ T cells [5]: 2020 MFI
MFI of PD-1 in Ki-67 positive CD4+ T cells [6]: 4020 MFI
MFI of PD-1 in Ki-67 positive CD8+ T cells [6]: 2250 MFI
MFI of PD-1 staining, average, CD4+ cells [7]: 4830 MFI
MFI of PD-1 staining, average, CD8+ cells [7]: 2190 MFI
MFI of PD-1 in Ki-67 positive CD4+ T cells [8]: 4620 MFI
MFI of PD-1 in Ki-67 positive CD8+ T cells [8]: 1890 MFI
MFI of PD-1 in Ki-67 positive CD4+ T cells [9]: 4100 MFI
MFI of PD-1 in Ki-67 positive CD8+ T cells [9]: 1870 MFI
MFI of PD-1 in Ki-67 positive CD4+ T cells [10]: 5840 MFI
MFI of PD-1 in Ki-67 positive CD8+ T cells [10]: 2820 MFI
MFI of PD-1 in Ki-67 positive CD4+ T cells [11]: 6440 MFI
MFI of PD-1 in Ki-67 positive CD8+ T cells [11]: 3190 MFI
MFI of PD-1 in Ki-67 positive CD4+ T cells [12]: 4830 MFI
MFI of PD-1 in Ki-67 positive CD8+ T cells [12]: 2370 MFI
MFI of PD-1 in Ki-67 positive CD4+ T cells [13]: 4870 MFI
MFI of PD-1 in Ki-67 positive CD8+ T cells [13]: 2050 MFI
MFI of PD-1 in Ki-67 positive CD4+ T cells [14]: 4480 MFI
MFI of PD-1 in Ki-67 positive CD8+ T cells [14]: 2120 MFI
B1: PD-1 detection antibody (clone EH12.2H7) (antibody, from another filing, V domains shown)
VH: QVQLQQSGAELAKPGASVQMSCKASGYSFTSSWIHWVKQRPGQGLEWIGYIYPSTGFTEYNQKFKDKATLTADKSSSTAYMQLSSLTSEDSAVYYCARWRDSSGYHAMDYWGQGTSVTVSS
VL: DIVLTQSPASLTVSLGQRATISCRASQSVSTSGYSYMHWYQQKPGQPPKLLIKFGSNLESGIPARFSGSGSGTDFTLNIHPVEEEDTATYYCQHSWEIPYTFGGGTKLEIK

From patent US20250313620A1
